{"source": "paper PMC10519996", "key": {"Q2XVP4 [1]": {"system": "Q2XVP4", "assay": "cryo-EM structure; single-particle cryo-EM of porcine tubulin incubated with GDP on ice, peak fraction of gel filtration (Superdex 200 Increase 3.2/300), 1-2 μM on graphene grids, no cofactors or depolymerizing reagents; heterodimer maps at 3.6 Å and 3.9 Å; tetramers by 2D and 3D classification …"}, "Q2XVP4 [2]": {"system": "Q2XVP4", "assay": "cryo-EM structure; single-particle cryo-EM of porcine tubulin (5 mg/ml) incubated with 1.5 mM GMPCPP on ice for 20-30 min, peak fraction of gel filtration (Superdex 200 Increase 3.2/300), 1-2 μM on graphene grids, no cofactors or depolymerizing reagents; heterodimer map at 3.5 Å; tetramers by 2D …"}}}
{"substance": "porcine αβ-tubulin heterodimer", "values": [{"measurement": "percent of the particles per micrograph that are tubulin hexamers (three heterodimers)", "setting": "Q2XVP4 [1]", "result": "62%, 32%, and 6%"}, {"measurement": "percent of the particles per micrograph that are tubulin tetramers (two heterodimers)", "setting": "Q2XVP4 [1]", "result": "62%, 32%, and 6%"}, {"measurement": "percent of the particles per micrograph that are tubulin hexamers (three heterodimers)", "setting": "Q2XVP4 [2]", "result": "64%, 29%, and 7%"}, {"measurement": "percent of the particles per micrograph that are tubulin tetramers (two heterodimers)", "setting": "Q2XVP4 [2]", "result": "64%, 29%, and 7%"}]}
